Residue numbers refer to the chain shown, from its start. Values belong to the binder of their own block, whether it stands above or below them.
Key:
[1] = molecular target: human SIRPA-DAP12 chimera on BWZ NFAT-luciferase reporter cells (human, UniProt O43914 62-113, limits assumed); test: cell-based or functional assay
[2] = molecular target: T1, Human SIRPA D1 Fc (human, UniProt P78324 32-137); test: ForteBio IgG avid;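 also: antibody IgG captured on AHQ biosensors, then 100 nM Fc-fused SIRP antigen applied for 3 min, followed by 3 min buffer dissociation, kinetics fitted to a 1:1 model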
T1 construct: not shown: human IgG1 Fc

[3] = molecular target: T2, Mouse SIRPA D1 Fc (mouse, UniProt P97797 32-150, limits assumed); test: ForteBio IgG avid;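 also: antibody IgG captured on AHQ biosensors, then 100 nM Fc-fused SIRP antigen applied for 3 min, followed by 3 min buffer dissociation, kinetics fitted to a 1:1 model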
T2 sequence: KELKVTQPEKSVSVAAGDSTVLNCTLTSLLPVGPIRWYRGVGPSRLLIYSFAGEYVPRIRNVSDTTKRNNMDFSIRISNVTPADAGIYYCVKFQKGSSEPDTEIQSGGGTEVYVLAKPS

[4] = molecular target: Human SIRPb D1 Fc (human, UniProt O00241 30-148, limits assumed); test: ForteBio IgG avid;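 also: antibody IgG captured on AHQ biosensors, then 100 nM Fc-fused SIRP antigen applied for 3 min, followed by 3 min buffer dissociation, kinetics fitted to a 1:1 model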
[5] = molecular target: T3, mouse SIRPA overexpressed on CHO cells (mouse, UniProt P97797 32-513); test: flow, CHO-muSIRPA;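 as to relative MFI: antibody binding measured by flow cytometry: cells stained with 1 ug/ml test antibody for 1 h on ice, detected with PE-labelled secondary antibody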
T3 construct: also called CHO-muSIRPA
T3 sequence: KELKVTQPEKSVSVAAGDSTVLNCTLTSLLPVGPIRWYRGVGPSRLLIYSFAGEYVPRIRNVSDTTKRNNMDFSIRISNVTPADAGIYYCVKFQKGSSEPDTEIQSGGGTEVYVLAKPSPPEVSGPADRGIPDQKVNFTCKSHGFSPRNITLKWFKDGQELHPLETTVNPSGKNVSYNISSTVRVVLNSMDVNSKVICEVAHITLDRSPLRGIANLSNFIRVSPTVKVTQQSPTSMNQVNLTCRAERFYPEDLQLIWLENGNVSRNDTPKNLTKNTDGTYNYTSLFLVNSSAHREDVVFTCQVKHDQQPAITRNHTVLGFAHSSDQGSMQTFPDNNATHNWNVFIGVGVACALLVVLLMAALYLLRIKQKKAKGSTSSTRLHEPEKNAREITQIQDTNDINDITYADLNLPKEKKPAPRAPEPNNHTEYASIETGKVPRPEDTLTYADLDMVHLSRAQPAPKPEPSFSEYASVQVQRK
Description: (§1) Initial characterization of anti-SIRPA antibodies of the present disclosure involved determining their ability to bind cell lines overexpressing human or mouse SIRPA. Cells were harvested, plated at 10⁶/ml in a 96 well plate, washed, and incubated in 100 ul PBS containing 1 ug/ml Mab for 1 hour in ice. Cells were then washed twice and incubated in 100 ul PBS containing 5 ug/ml PE-conjugated secondary antibody for 30 minutes in ice. Cells were washed twice in cold PBS and acquired on a BD FACS Canto. Data analysis and calculation of mean fluorescence intensity (MFI) values or % positive cells was performed with FlowJo® (TreeStar) software version 10.0.7.

[6] = molecular target: T3, mouse SIRPA overexpressed on CHO cells; test: flow, CHO-muSIRPA; remark: listed apart in the source;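 as to relative MFI: antibody binding measured by flow cytometry: cells stained with 1 ug/ml test antibody for 1 h on ice, detected with PE-labelled secondary antibody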
[7] = molecular target: T4, human SIRPA overexpressed on CHO cells (human, UniProt P78324 31-504); test: flow, CHO-huSIRPA;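 also: Anti-SIRPA antibodies applied at 1 µg/mL for 1 h on ice, binding read by flow cytometry using a PE-labelled secondary antibody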
T4 construct: also called CHO-huSIRPA
Description: as §1

[8] = molecular target: T5, human SIRPA Fc fusion antigen (human, UniProt P78324 31-373); test: ForteBio IgG avid;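 also: ForteBio sensor-based avid binding of anti-SIRPA antibodies in IgG format, with the binding partner in solution at 100 nM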
T5 construct: heterologous signal peptide; not shown: human IgG1 Fc

[9] = molecular target: T6, human SIRPβ1 Fc fusion antigen (human, UniProt O00241 30-371); test: ForteBio IgG avid;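 also: ForteBio sensor-based avid binding of anti-SIRPA antibodies in IgG format, with the binding partner in solution at 100 nM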
T6 construct: not shown: human IgG1 Fc

[10] = molecular target: T5, human SIRPA Fc fusion antigen; test: ForteBio Fab monovalent
Description: (§2) Briefly, ForteBio affinity measurements were performed by loading immunoglobulins (IgGs) on-line onto AHQ sensors. Sensors were equilibrated off-line in assay buffer for 30 min and then monitored on-line for 60 seconds for baseline establishment. For avid binding measurement, sensors with loaded IgGs were exposed to 100 nM antigen (human SIRPA or SIRPβ1 Fc fusion) for 3 min, afterwards they were transferred to assay buffer for 3 min for off-rate measurement. […] Monovalent binding measurements were obtained by loading human SIRPA Fc fusion antigens to AHQ sensor and followed by exposure to 100 nM anti-SIRPA antibody Fab.
(§3) Additional monovalent measurements were made by loading biotinylated human SIRPA monomer to SA sensor followed by exposure to 100 nM Fab in solution. Kinetics data were fit using a 1:1 binding model in the data analysis software provided by ForteBio.

[11] = molecular target: T6, human SIRPβ1 Fc fusion antigen; test: ForteBio Fab monovalent
Description: as §2, §3

[12] = molecular target: human SIRPA R54A with C-terminal V5 tag on HEK-293T cells (human, UniProt P78324 31-504); test: flow cytometry, Fab on HEK-293T cells with the mutant
Description: (§4) Epitope mapping of anti-SIRPA antibodies was performed using an alanine-scanning library created by shotgun mutagenesis of the human SIRPA cDNA sequence.
(§5) Antibodies were digested to generate Fabs, after which cells were incubated with Fabs diluted in 10% normal goat serum (NGS) (Sigma-Aldrich, St. Louis, MO). Prior to library screening, primary Fab concentrations were determined using an independent immunofluorescence titration curve against cells expressing wild type SIRPA to ensure that signals were within the linear range of detection. Fabs were detected using 7.5 μg/ml AlexaFluor488-conjugated secondary antibody (Jackson ImmunoResearch Laboratories, Westgrove, PA) in 10% NGS. Cells were washed twice with PBS and resuspended in Cellstripper (Cellgro, Manassas, VA) with 0.1% BSA (Sigma-Aldrich, St. Louis, MO). In some cases, higher stringency conditions were used, including increased pH, increased temperature, and increased dissociation time. Mean cellular fluorescence was detected using the Intellicyt high throughput flow cytometer (HTFC, Intellicyt, Albuquerque, NM). Fab reactivities against each mutant clone were calculated relative to wild-type SIRPA protein reactivity by subtracting the signal from mock-transfected controls, and normalizing to the signal from wild-type SIRPA transfected controls.

[13] = molecular target: human SIRPA D40A with C-terminal V5 tag on HEK-293T cells (human, UniProt P78324 31-504); test: as above
Description: as §4, §5

[14] = molecular target: human SIRPA W68A with C-terminal V5 tag on HEK-293T cells (human, UniProt P78324 31-504); test: as above
Description: as §4, §5

[15] = molecular target: T7, biotinylated human SIRPA (monomer) (human, UniProt P78324 31-373, limits assumed, biotinylated); test: MSD-SET, Fab, equilibrium;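 also: solution equilibrium titration, free antigen captured on antibody-coated MSD plates and detected by electrochemiluminescence with labeled streptavidin, percent free antigen versus titrated antibody fit to quadratic model for KD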
T7 construct: monomer made by IdeS cleavage of a SIRPA Fc fusion; also called recombinant human SIRPA
Description: Antibodies (20 nM in PBS) were coated onto standard bind MSD-ECL plates overnight at 4° C. or at room temperature for 30 min. Plates were then blocked with 1% BSA for 30 min with shaking at 700 rpm, followed by three washes with wash buffer (PBSF+0.05% Tween 20). SET samples were applied and incubated on the plates for 150s with shaking at 700 rpm followed by one wash. Antigen captured on a plate was detected with 250 ng/ml sulfotag-labeled streptavidin in PBSF by incubation on the plate for 3 min. The plates were washed three times with wash buffer and then read on the MSD Sector Imager 2400 instrument using 1× Read Buffer T with surfactant. The percent free antigen was plotted as a function of titrated antibody in Prism and fit to a quadratic equation to extract the KD. To improve throughput, liquid handling robots were used throughout MSD-SET experiments, including SET sample preparation.

T6 sequence (O00241 30-371 limits assumed): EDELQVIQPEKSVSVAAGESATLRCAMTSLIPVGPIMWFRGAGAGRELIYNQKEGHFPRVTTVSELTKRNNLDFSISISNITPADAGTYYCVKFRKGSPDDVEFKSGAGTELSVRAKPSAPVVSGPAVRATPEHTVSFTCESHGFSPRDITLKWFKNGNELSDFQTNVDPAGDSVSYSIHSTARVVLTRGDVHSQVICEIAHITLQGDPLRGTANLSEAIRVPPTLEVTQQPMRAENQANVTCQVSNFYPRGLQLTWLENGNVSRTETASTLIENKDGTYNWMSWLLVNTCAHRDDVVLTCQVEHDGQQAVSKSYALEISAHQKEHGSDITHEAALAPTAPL
Chain of Human SIRPb D1 Fc (O00241 30-148 limits assumed): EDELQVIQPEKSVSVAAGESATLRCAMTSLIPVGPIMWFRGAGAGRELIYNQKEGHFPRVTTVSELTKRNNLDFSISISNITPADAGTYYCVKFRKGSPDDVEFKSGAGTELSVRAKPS

luminescence of BWZ-huSIRPA reporter cells with SA-56 and plate-bound CD47 [1]: ~10 fold over background
Kd [2]: 2.81 nM
binding result [3]: no binding (tested: 100 nM)
binding result [4]: no binding (tested: 100 nM)
relative MFI [5]: 0.583 fold over background
binding result [6]: no binding (tested: 1 ug/ml)
relative MFI [7]: 128 fold over background
Kd [8]: 2.04 nM
binding result [9]: no binding (tested: 100 nM)
B1: SA-56 (antibody, V domains shown)
VH: EVQLVESGGGLVKPGGSLRLSCAASGFTFSSYSMNWVRQAPGKGLEWVSSISSSSSYIYYADSVKGRFTISRDNAKNSLYLQMNSLRAEDTAVYYCARGVETYSGPNWFDPWGQGTLVTVSS
VL: DIQMTQSPSSVSASVGDRVTITCRASQGISSWLAWYQQKPGKAPKLLIYAASSLQSGVPSRFSGSGSGTDFTLTISSLQPEDFATYYCQQAIYFPITFGGGTKVEIK
notes: IgG; also called SA-56 (parental)

Kd [10]: 3.43 nM
binding result [11]: no binding (tested: 100 nM)
Binding Reactivity (% WT), mean [12]: 2.9 % WT
Binding Reactivity (% WT), mean [13]: 0.2 % WT
Binding Reactivity (% WT), mean [14]: 25.6 % WT
Kd [15]: 0.88 nM
B2: SA-56-94 Fab (Fab, V domains shown)
VH: EVQLVESGGGVVQPGRSLRLSCAASGFTFSYYGMSWVRQAPGKGLEWVASIWVDGSNKYYADSVKGRFTISRDNSKNTLYLQMNSLRAEDTAVYYCAVGTETYSGPNWFDPWGQGTLVTVSS
VL: B1 VL
notes: papain Fab; also called SA-94

Kd [10]: 1.11 nM
binding result [11]: no binding (tested: 100 nM)
Binding Reactivity (% WT), mean [12]: 1.7 % WT
Binding Reactivity (% WT), mean [13]: 0.4 % WT
Binding Reactivity (% WT), mean [14]: 19.3 % WT
Kd [15]: 0.17 nM
B3: SA-56-90 Fab (Fab, V domains shown)
VH: B2 VH with E1Q, F27S, Y31H, N84D, V98R, T100V
VL: B1 VL
notes: papain Fab; also called SA-90
